T1: full-length schwannomin isoform 1 fused to the GAL4 binding domain (pGBT9NF2, residues 1-595) (Homo sapiens (Human), UniProt P35240 1-595)
T1 construct: Yeast two-hybrid bait; also called pGPT9NF2; GAL4-NF2
T1 sequence: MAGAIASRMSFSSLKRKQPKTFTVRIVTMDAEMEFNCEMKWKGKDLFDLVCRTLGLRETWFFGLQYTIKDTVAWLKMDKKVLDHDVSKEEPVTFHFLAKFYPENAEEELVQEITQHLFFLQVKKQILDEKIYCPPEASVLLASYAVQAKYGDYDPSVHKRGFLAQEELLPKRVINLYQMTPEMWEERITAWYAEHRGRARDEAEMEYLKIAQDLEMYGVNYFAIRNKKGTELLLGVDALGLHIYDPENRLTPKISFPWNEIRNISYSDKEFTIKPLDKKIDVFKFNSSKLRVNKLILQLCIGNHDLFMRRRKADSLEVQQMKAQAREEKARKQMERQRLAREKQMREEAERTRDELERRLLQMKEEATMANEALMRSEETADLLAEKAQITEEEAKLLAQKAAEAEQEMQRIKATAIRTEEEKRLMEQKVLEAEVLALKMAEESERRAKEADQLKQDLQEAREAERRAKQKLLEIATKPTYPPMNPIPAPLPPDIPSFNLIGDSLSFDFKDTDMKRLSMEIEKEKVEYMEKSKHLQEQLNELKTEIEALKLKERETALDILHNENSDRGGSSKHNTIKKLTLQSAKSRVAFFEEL

B1: GAL4 activation domain alone (pGADGH, no insert) (other, UniProt P04386 768-881, looked up)
chain: ANFNQSGNIADSSLSFTFTNSSNGPNLITTQTNSQALSQPIASSNVHDNFMNNEITASKIDDGNNSKPLSPGWTDQTAYNAFGITTGMFNTTTMDDVYNYLFDDEDTPPNPKKE
notes: Negative control
B2: glutathione-S-transferase fusion of the C-terminal domain of schwannomin isoform 1 (GSTNF2CL, schwannomin residues 469-595) (other)
chain: KQKLLEIATKPTYPPMNPIPAPLPPDIPSFNLIGDSLSFDFKDTDMKRLSMEIEKEKVEYMEKSKHLQEQLNELKTEIEALKLKERETALDILHNENSDRGGSSKHNTIKKLTLQSAKSRVAFFEEL
notes: Expressed in E. coli DH5α, purified on Sepharose 4B-glutathione; predicted 40.0 kDa; also called isoform 1 C-terminal domain GST fusion; not shown: Glutathione-S-transferase of pGEX-5X-1 and its linker
B3: MBP fused with β-spectrin residues 1885-1992 (other, UniProt Q01082 1885-1992, looked up, not shown: large carriers)
chain: RENEVLEAWKSLLDACESRRVRLVDTGDKFRFFSMVRDLMLWMEDVIRQIEAQEKPRDVSSVELLMNNHQGIKAEIDARNDSFTTCIELGKSLLARKHYASEEIKEKL
B4: MBP fused with β-spectrin residues 1885-1967 (other, UniProt Q01082 1885-1967, looked up, not shown: large carriers)
chain: RENEVLEAWKSLLDACESRRVRLVDTGDKFRFFSMVRDLMLWMEDVIRQIEAQEKPRDVSSVELLMNNHQGIKAEIDARNDSF
B5: CD44 (conserved cytoplasmic domain, last 70 residues) (other, UniProt P16070 673-742, looked up, not shown: large carriers)
chain: RRRCGQKKKLVINSGNGAVEDRKPSGLNGEASKSQEMVHLVNKESSETPDQFMTADETRNLQNVDMKIGV
notes: domain: conserved cytoplasmic domain, last 70 residues; Unrelated control protein in the two-hybrid filter assay

The target in assay [1] is T1, full-length schwannomin isoform 1 fused …. The experiment in a line: yeast two-hybrid, liquid β-galactosidase assay, control.
Assay [2] deals with maltose binding protein (MBP) with no fusion protein (UniProt P0AEX9 27-392 = MBP). As to the kind of experiment: pull-down on amylose resin, Western blot with Ab5990. As for the experimental part:
(§1) Purified MBP or MBP fusions were incubated with fresh amylose resin for 5 minutes at room temperature and 2.5 minutes at 4° C. in column buffer (20 mM Tris-HCl, pH 7.4, 200 mM NaCl, 1 mM EDTA, 2 μg/ml aprotinin, 0.5 mg/ml Perfabloc SC), and washed three times with binding buffer (160 mM NaCl, 2.5 mM MgCl₂, 1.5 mM CaCl₂, […], 50 mM hepes, pH 7.4, 1% Triton X-100, 2 μg/ml aprotinin, and 0.5 mg/ml Pefabloc SC). Saturated amylose resin was incubated with equivalent amounts of GSTNF2CL or GSTNF2I2CL for 20 min at 4° C. and washed three times with binding buffer. The quantities were normalized by conducting dot blots of serial dilutions detected with anti-GST antibody (Pharmacia). Western blot analysis was conducted as described using affinity purified rabbit anti-spectrin (Sigma S1515), and anti-schwannomin (Ab5990, recognizes C-terminal domain) polyclonal antibodies (Huynh and Pulst (1996)).
(§2) Glutathione-S-transferase (GST) fusions were purified with the C-terminal domain of schwannomin isoform 1 (GSTNF2CL, schwannomin residues 469-595) or isoform 2 (GSTNF2I2CI, schwannomin residues 469-590). When the MBPSp-amylose resin was incubated with schwannomin-GST fusion proteins, the proteins eluted from the washed resin were recognized by an anti-schwannomin antibody (Ab5990). […]
(In general: A western blot detects proteins with antibodies after separation by electrophoresis.)

The target in assay [3] is B2. As to the kind of experiment: pull-down on amylose resin, Western blot. How it is done: as §1, §2
In assay [4] the target is T1, full-length schwannomin isoform 1 fused …. As to the kind of experiment: yeast two-hybrid, β-galactosidase filter assay. The source says: Double-transformant pGBT9NF2I2CL and pGAD10Sp is weakly positive for β-galactosidase in the filter assay; the trace blue color is not visible in the photo. Right: Histogram illustrating results of semiquantitative liquid assays for β-galactosidase activity (Poullet and Tamanio, Methods in Enzymol. 255:488-497 (1995)). Three controls are included: pGBT9NF1 and pGADGHRas, negative pGBT9NF2 and PGADGH, negative pGBT9 and pGAD105p. β-Galactosidase units=1000×[OD₄₂₀/(OD₆₀₀×times×culture volume)]. Bars show mean and standard deviation of three replicate clones from one transformation. Except for pGBT9NF2C and pGBT9NF2I2C, liquid assays for each construct were conducted at the same time, and for all constructs, the same clones were used in filter assays, and results were reproducible. FIG. 1(B) Control β-galactosidase filter assays of indicated double transformants showing high activity for a known positive interaction between NF1 and Ras (Poullet and Tamanio, (1995)), no detectable interaction between GAL4-NF2 and an unrelated protein, CD44 (conserved cytoplasmic domain, last 70 residues), and no detectable interaction between other negative controls. […]

Regarding B1, the binding result in assay [1] is recorded as “no binding”.

Consider B2, for which, in assay [2], the binding result was “no binding”. For B3, in assay [3], the binding result was “no binding”. The same measure, in the same setting: to B4 belongs “no binding”. B5: in assay [4], the binding result was “no binding”.

Values taken from US20060199195A1 (CEDARS SINAI MEDICAL CENTER, published 2006).
